The data set concerns the molecule itself. Kind of data set: SEC-MALS.

B1: Ptch1-B (stabilized mouse PTCH1 variant, SBP-tagged, purified) (receptor, UniProt Q61115 1-1291, looked up)
chain: MASAGNAAGALGRQAGGGRRRRTGGPHRAAPDRDYLHRPSYCDAAFALEQISKGKATGRKAPLWLRAKFQRLLFKLGCYIQKNCGKFLVVGLLIFGAFAVGLKAANLETNVEELWVEVGGRVSRELNYTRQKIGEEAMFNPQLMIQTPKEEGANVLTTEALLQHLDSALQASRVHVYMYNRQWKLEHLCYKSGELITETGYMDQIIEYLYPCLIITPLDCFWEGAKLQSGTAYLLGKPPLRWTNFDPLEFLEELKKINYQVDSWEEMLNKAEVGHGYMDRPCLNPADPDCPATAPNKNSTKPLDVALVLNGGCQGLSRKYMHWQEELIVGGTVKNATGKLVSAHALQTMFQLMTPKQMYEHFRGYDYVSHINWNEDRAAAILEAWQRTYVEVVHQSVAPNSTQKVLPFTTTTLDDILKSFSDVSVIRVASGYLLMLAYACLTMLRWDCSKSQGAVGLAGVLLVALSVAAGLGLCSLIGISFNAATTQVLPFLALGVGVDDVFLLAHAFSETGQNKRIPFEDRTGECLKRTGASVALTSISNVTAFFMAALIPIPALRAFSLQAAVVVVFNFAMVLLIFPAILSMDLYRREDRRLDIFCCFTSPCVSRVIQVEPQAYTEPMQSTVQLRTEYDPHTHVYYTTAEPRSEISVQPVTVTQDNLSCQSPESTSSTRDLLSQFSDSSLHCLEPPCTKWTLSSFAEKHYAPFLLKPKAKVVVILLFLGLLGVSLYGTTRVRDGLDLTDIVPRETREYDFIAAQFKYFSFYNMYIVTQKADYPNIQHLLYDLHKSFSNVKYVMLEENKQLPQMWLHYFRDWLQGLQDAFDSDWETGRIMPNNYKNGSDDGVLAYKLLVQTGSRDKPIDISQLTKQRLVDADGIINPSAFYIYLTAWVSNDPVAYAASQANIRPHRPEWVHDKADYMPETRLRIPAAEPIEYAQFPFYLNGLRDTSDFVEAIEKVRVICNNYTSLGLSSYPNGYPFLFWEQYISLRHWLLLSISVVLACTFLVCAVFLLNPWTAGIIVMVLALMTVELFGMMGLIGIKLSAVPVVILIASVGIGVEFTVHVALAFLTAIGDKNHRAMLALEHMFAPVLDGAVSTLLGVLMLAGSEFDFIVRYFFAVLAILTVLGVLNGLVLLPVLLSFFGPCPEVSPANGLNRLPTPSPEPPPSVVRFAVPPGHTNNGSDSSDSEYSSQTTVSGISEELRQYEAQQGAGGPAHQVIVEATENPVFARSTVVHPDSRHQPPLTPRQQPHLDSGSLSPGRQGQQPRRD
On to B1, for which the “stoichiometry N” value was found to be 2.

Source of the values: paper PMC6326742 (Cell, 2018).
